B1: FGF10: FGF10, maturation factor compared at 10 ng/ml (protein, UniProt O15520 38-208, looked up)
Fibroblast growth factor 10: QALGQDMVSPEATNSSSSSFSSPSSAGRHVRSYNHLQGDVRWRKLFSFTKYFLKIEKNGKVSGTKKENCPYSILEITSVEIGVVAVKAINSNYYLAMNKKGKLYGSKEFNNDCKLKERIEENGYNTYASFNWQHNGRQMYVALNGKGAPRRGQKTRRKNTSAHFLPMVVHS
B2: FGF4: fibroblast growth factor 4 (FGF4), maturation factor added to the differentiation medium (protein, UniProt P08620 31-206, looked up)
Fibroblast growth factor 4: APTAPNGTLEAELERRWESLVALSLARLPVAAQPKEAAVQSGAGDYLLGIKRLRRLYCNVGIGFHLQALPDGRIGGAHADTRDSLLELSPVERGVVSIFGVASRFFVAMSSKGKLYGSPFFTDECTFKEILLPNNYNAYESYKYPGMFIALSKNGKTKKGNRVSPTMKVTHFLPRL

Legend:
Assay type in all cases: cell-based
[1] = system: human embryonic stem cells (BG01 cell line); test: Morphology and beating of cardiomyocytes differentiated from stem cells (optical microscope); conditions: FGFs 10 ng/ml, ascorbic acid 200 μg/ml; for day of differentiation on which beating cardiomyocytes were observed: control group 9th day; for cell morphology: treatment from 5th to 15th day of differentiation, vs control group
Protocol: In order to increase the differentiation efficiency of stem cells into cardiomyocytes and to improve differentiation by cardiomyocyte type and mature differentiation, conditions for monolayer differentiation of human embryonic stem cells (BG01 cell line) into cardiomyocytes were established.
An E8 culture medium (STEMCELL Technologies) containing a 2 μM ROCK inhibitor (thiazovivin) was added to a 6-well culture plate coated with Matrigel, and embryonic stem cells dissociated into single cells using Accutase were seeded at 2.5×10^5 cells per well. Culture was carried out for about 3 days, and the E8 culture medium was exchanged until confluence of the 6-well culture plate with the cells. When confluence of the 6-well plate with the human embryonic stem cells was achieved, CHIR99021 (Sigma-Aldrich) as a GSK-3 inhibitor was added at a concentration of 6 μM to a CDM3 culture medium (containing RPMI 1640, serum albumin and ascorbic acid as three chemically verified components, P. W. Burridge et al., Nature Methods 11:855, 2014), followed by culture for 24 hours. Then, on the 2nd day of differentiation, 5 μM IWP2 (Inhibitor of Wnt Production 2) was added to the medium, followed by culture for 2 days. After addition of 10 ng/ml FGF2, 10 ng/ml FGF4, 10 ng/ml FGF10, 200 μg/ml ascorbic acid, and 10 ng/ml FGF4+200 μg/ml ascorbic acid on the 5th day of differentiation, culture was carried out until the 15th day of differentiation while the culture medium was exchanged every 48 hours with an RPMI+B27(-Insulin) medium (FIG. 1a).

[2] = system: human embryonic stem cells (BG01); test: Polymerase chain reaction for cell lineage markers during differentiation into cardiomyocytes; conditions: 15th day, treated 5th to 15th day; FGFs 10 ng/ml, ascorbic acid 200 μg/ml; vs control group
From the text: (§1) In order to investigate the effect of FGF2 on differentiation by cardiomyocyte type, mature differentiation of cardiomyocytes, and differentiation of vascular smooth muscle cells, the expression of a cardiomyocyte marker (cTnT), mature cardiomyocyte marker (cTnI), ventricular cardiomyocyte marker (MLC2v), atrial cardiomyocyte markers (MLC2a, ANP), nodal cardiomyocyte markers (HCN4, TBX18), vascular smooth muscle cell markers (SMA, SM22), and vascular endothelial cell marker (CD31) in the control group and the group treated with 10 ng/ml FGF2 for 10 days from the 5th day to the 15th day during the differentiation of human embryonic stem cells (BG01) into cardiomyocytes was determined through polymerase chain reaction using primers for each cell lineage marker.
as §1, with “of FGF10” for “of FGF2”, “of the” for “of a”, “ng/ml FGF10” for “ng/ml FGF2”
as §1, with “of ascorbic acid” for “of FGF2”, “of the” for “of a”, “with 200 μg/ml ascorbic acid” for “with 10 ng/ml FGF2”
as §1, with “of FGF4” for “of FGF2”, “of the” for “of a”, “ng/ml FGF4” for “ng/ml FGF2”

[3] = system: human embryonic stem cells; test: FGF4 concentration series, polymerase chain reaction for MLC2v, MLC2a, TBX18, SMA
Protocol: In order to determine the appropriate concentration of FGF4 on the increase in gene expression of the ventricular cardiomyocyte marker (MLC2v), atrial cardiomyocyte marker (MLC2a), nodal cardiomyocyte marker (TBX18), and vascular smooth muscle cell marker (SMA) from human embryonic stem cells, after treatment with FGF4 at various concentrations for 10 days from the 5th day to the 15th day of differentiation, polymerase chain reaction was performed using primers for MLC2v, MLC2a, TBX18, and SMA.

[4] = system: human embryonic stem cells (BG01); test: Immunofluorescence staining of cardiomyocyte type markers; conditions: 10 ng/ml FGF4 or 10 ng/ml FGF4+200 μg/ml ascorbic acid
Protocol: In order to investigate the effect of treatment with FGF4 alone and co-treatment with FGF4+ascorbic acid on type-specific differentiation and mature differentiation of human embryonic stem cells into cardiomyocytes, differences in expression of the cardiomyocyte marker (cTnT), ventricular cardiomyocyte marker (MLC2v), and atrial cardiomyocyte marker (MLC2a) after treatment with 10 ng/ml FGF4 or co-treatment with 10 ng/ml FGF4+200 μg/ml ascorbic acid for 10 days from the 5th day to the 15th day during the differentiation of human embryonic stem cells (BG01) into cardiomyocytes was confirmed through immunofluorescence staining (FIG. 7).

Molecule	day of differentiation on which beating cardiomyocytes were observed [1]	cell morphology [1]	expression of atrial cardiomyocyte marker ANP (mRNA) [2]	expression of mature cardiomyocyte marker cTnI (mRNA) [2]	expression of nodal cardiomyocyte marker HCN4 (mRNA) [2]	expression of nodal cardiomyocyte marker TBX18 (mRNA) [2]	expression of vascular smooth muscle cell marker SM22 (mRNA) [2]	expression of vascular smooth muscle cell marker SMA (mRNA) [2]	expression of ventricular cardiomyocyte marker MLC2v (mRNA) [2]	expression of atrial cardiomyocyte marker MLC2a (mRNA) [2]	also measured
FGF2: FGF2, maturation factor compared at 10 ng/ml	9 days	morphological changes similar to the control group	significantly increased	no effect	significantly decreased	significantly decreased	significantly decreased	significantly decreased	no effect	–	expression of vascular endothelial cell marker CD31 (mRNA) [2]: significantly increased
O=C1O[C@H]([C@@H](O)CO)C(O)=C1O [ascorbic acid, reference compound]	9 days	relatively flat morphology	significantly increased	significantly increased	significantly decreased	significantly decreased	significantly decreased	significantly decreased	significantly increased	significantly increased	expression of cardiomyocyte marker cTnT (mRNA) [2]: significantly increased
B1	9 days	morphological changes similar to the control group	–	no effect	significantly increased	significantly increased	–	significantly increased	no effect	significantly increased	–
B2	9 days	formed in a thickened structure	significantly increased	significantly increased	significantly decreased	significantly decreased	significantly decreased	significantly decreased	significantly increased	significantly increased	gene expression of atrial cardiomyocyte type marker MLC2a ([3]; 5 ng/ml FGF4, 5th to 15th day): started to increase; gene expression of nodal cardiomyocyte marker TBX18 ([3]; 5 ng/ml FGF4, 5th to 15th day): significantly decreased; gene expression of vascular smooth muscle cell marker SMA ([3]; 5 ng/ml FGF4, 5th to 15th day): significantly decrease; gene expression of ventricular cardiomyocyte type marker MLC2v ([3]; 5 ng/ml FGF4, 5th to 15th day): started to increase; gene expression of atrial cardiomyocyte type marker MLC2a ([3]; 10 ng/ml FGF4, 5th to 15th day): highest; gene expression of nodal cardiomyocyte marker TBX18 ([3]; 10 ng/ml FGF4, 5th to 15th day): significantly decreased; gene expression of vascular smooth muscle cell marker SMA ([3]; 10 ng/ml FGF4, 5th to 15th day): significantly decrease; gene expression of ventricular cardiomyocyte type marker MLC2v ([3]; 10 ng/ml FGF4, 5th to 15th day): highest; gene expression of atrial cardiomyocyte type marker MLC2a ([3]; 25 ng/ml FGF4, 5th to 15th day): highest; gene expression of nodal cardiomyocyte marker TBX18 ([3]; 25 ng/ml FGF4, 5th to 15th day): significantly decreased; gene expression of vascular smooth muscle cell marker SMA ([3]; 25 ng/ml FGF4, 5th to 15th day): significantly decrease; gene expression of ventricular cardiomyocyte type marker MLC2v ([3]; 25 ng/ml FGF4, 5th to 15th day): highest; gene expression of atrial cardiomyocyte type marker MLC2a ([3]; 50 ng/ml FGF4, 5th to 15th day): observed to increase; gene expression of ventricular cardiomyocyte type marker MLC2v ([3]; 50 ng/ml FGF4, 5th to 15th day): observed to increase; gene expression of nodal cardiomyocyte marker TBX18 ([3]; 100 ng/ml FGF4, 5th to 15th day): significantly decreased; morphology of cardiomyocytes (immunostaining) ([4]; 5th to 15th day, compared to control group): agglomerated and thickened morphology; atrial cardiomyocyte marker MLC2a (immunostaining) ([4]; control group also positive): positive reaction; expression of ventricular cardiomyocyte marker MLC2v (immunostaining) ([4]; in the thickened cells, 5th to 15th day): increased

Reference: patent US20240084259A1, “STEM CELL-DERIVED MATURE CARDIOMYOCYTES AND CARDIOVASCULAR DISEASE MODEL USING SAME” (KOREA UNIVERSITY RESEARCH AND BUSINESS FOUNDATION, priority 2019, published 2024)
